Measured values as given in patent US20200247894A1 (Regeneron, published 2020).

Tests used:
[1] = target: T1, human IL2Rγ (endogenously expressed on cells) (human, UniProt P31785 23-369); test: cell-based or functional assay
T1 sequence (looked up): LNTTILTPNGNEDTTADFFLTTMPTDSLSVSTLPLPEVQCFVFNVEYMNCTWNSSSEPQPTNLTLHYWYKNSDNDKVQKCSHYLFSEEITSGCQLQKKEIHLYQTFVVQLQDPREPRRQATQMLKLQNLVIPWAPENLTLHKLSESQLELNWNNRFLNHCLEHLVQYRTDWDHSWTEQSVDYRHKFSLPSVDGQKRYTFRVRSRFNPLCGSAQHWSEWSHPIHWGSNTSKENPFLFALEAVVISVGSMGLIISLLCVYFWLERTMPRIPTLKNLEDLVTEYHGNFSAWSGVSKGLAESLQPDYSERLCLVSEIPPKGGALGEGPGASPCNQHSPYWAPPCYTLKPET

[2] = target: T2, D2 domain of human IL2Rγ extracellular domain expressed with a C-terminal myc-myc-hexahistidine tag (human); test: SPR, mAb captured on anti-hFc, 37 C
T2 construct: also called human IL2Rγ domain 2
T2 chain: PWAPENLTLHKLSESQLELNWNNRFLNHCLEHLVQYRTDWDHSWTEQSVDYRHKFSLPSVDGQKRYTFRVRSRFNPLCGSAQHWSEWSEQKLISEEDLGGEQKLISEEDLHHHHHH
Experimental: (§1) Equilibrium dissociation constants (KD values) for IL-2Rγ binding to purified anti-IL2Rγ monoclonal antibodies were determined using a Biacore 4000 instrument equipped with a real-time surface plasmon resonance biosensor. All binding studies were performed in 10 mM HEPES, 150 mM NaCl, 3 mM EDTA, and 0.05% v/v Surfactant Tween-20, pH 7.4 (HBS-ET) running buffer at 25° C. and 37° C. The Biacore sensor surface was first derivatized by amine coupling with a monoclonal mouse anti-human Fc antibody (GE, # BR-1008-39) to capture anti-IL2Rγ monoclonal antibodies.

[3] = target: T3, D1 domain of human IL-2Rγ extracellular domain expressed with a C-terminal myc-myc-hexahistidine tag (human); test: SPR, mAb captured on anti-hFc, 25 C
T3 construct: also called human IL2Rγ domain 1
T3 chain: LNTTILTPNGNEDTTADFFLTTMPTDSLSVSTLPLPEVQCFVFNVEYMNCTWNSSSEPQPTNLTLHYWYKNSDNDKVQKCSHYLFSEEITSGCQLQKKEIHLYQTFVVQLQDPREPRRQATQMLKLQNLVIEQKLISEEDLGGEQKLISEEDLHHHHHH
In short: (§2)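 HBS-ET running buffer (10 mM HEPES, 150 mM NaCl, 3 mM EDTA, 0.05% Tween-20, pH 7.4). mAb capture via anti-human Fc. Dissociation monitored 8-10 min. 1:1 kinetic fit; KD, t1/2 derived from ka/kd.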

[4] = target: T3, D1 domain of human IL-2Rγ extracellular …; test: SPR, mAb captured on anti-hFc, 37 C
In short: as §2

[5] = target: T1, human IL2Rγ (endogenously expressed on …); test: cell-based or functional assay; remark: listed apart in the source
[6] = target: T1, human IL2Rγ (endogenously expressed on …); test: cell-based or functional assay; remark: listed apart in the source
[7] = target: T2, D2 domain of human IL2Rγ extracellular …; test: SPR, mAb captured on anti-hFc, 25 C
Experimental: as §1

[8] = target: T3, D1 domain of human IL-2Rγ extracellular …; test: SPR, mAb captured on anti-hFc, 25 C; 25 C
Experimental: as §1
The dissociation of monoclonal antibody bound IL2Rγ reagents were monitored for 8-10 minutes in HBS-ET running buffer. Kinetic association (kₐ) and dissociation (kd) rate constants were determined by fitting the real-time sensorgrams to a 1:1 binding model using Scrubber 2.0c curve fitting software. Binding dissociation equilibrium constants (KD) and dissociative half-lives (t_{1/2}) were calculated from the kinetic rate constants as: […]

Binder	IC50; IL-9 (2 nM)-induced STAT3 phosphorylation, in vitro differentiated human mast cells [1]	100 nM Ag Bound [2]	100 nM Ag Bound [3]	Kd [3]	koff [3]	kon [3]	t½ [3]	100 nM Ag Bound [4]	Kd [4]	koff [4]	kon [4]	t½ [4]	IC50; IL-2 30 pM; NK92/hIL7R/STAT3-luc [5]	IC50; IL-4 250 pM; Ramos.2G6.4C10/STAT3-luc [5]	IC50; IL-7 50 pM; NK92/hIL7R/STAT3-luc [5]	IC50; IL-9 20 pM; NK92/hIL7R/STAT3-luc [5]	IC50; IL-15 60 pM; NK92/hIL7R/STAT3-luc [5]	IC50; IL-21 5 pM; NK92/hIL7R/STAT3-luc [5]	100 nM Ag Bound [7]	binding result [7]	further results
H4H12922P2 (antibody, human IgG4 S228P, kappa, V domains shown, human IgG4; also called REGN7256) VH: QVQLVESGGGVVKPGGSLRLSCAASGFTFSNSGIHWVRQAPGKGLEWVALISYAGSNKYYADSVKGRFTISRDNSKNTLSLQMNSLRAEDTAVYYCAKEVWTGTYDSFDMWGRGTMVTVSS VL: not shown	0.416 nM	3 RU	50 RU	3.32 nM	0.000839 s⁻¹	252000 M⁻¹ s⁻¹	14 min	26 RU	4.13 nM	0.00168 s⁻¹	407000 M⁻¹ s⁻¹	7 min	1.6e-08 M	1.3e-09 M	2.6e-09 M	3.1e-09 M	9.3e-09 M	> 1e-07 M	2 RU	no binding (tested: 100 nM)	Max Inhibition (%); IL-2 30 pM; NK92/hIL7R/STAT3-luc [5]: 85%; Max Inhibition (%); IL-4 250 pM; Ramos.2G6.4C10/STAT3-luc [5]: 100%; Max Inhibition (%); IL-7 50 pM; NK92/hIL7R/STAT3-luc [5]: 98%; Max Inhibition (%); IL-9 20 pM; NK92/hIL7R/STAT3-luc [5]: 99%; Max Inhibition (%); IL-15 60 pM; NK92/hIL7R/STAT3-luc [5]: 91%; Max Inhibition (%); IL-21 5 pM; NK92/hIL7R/STAT3-luc [5]: 49%; IC50; IL-2 (10 nM)-induced STAT phosphorylation, human CD4+ T cells [6]: 1.87 nM; IC50; IL-4 (50 pM)-induced STAT phosphorylation, human CD4+ T cells [6]: 8.54e-10 M; IC50; IL-7 (1 pM)-induced STAT phosphorylation, human CD4+ T cells [6]: 5.8e-10 M; IC50; IL-15 (0.5 nM)-induced STAT phosphorylation, human CD4+ T cells [6]: 2.46 nM; IC50; IL-21 (50 pM)-induced STAT phosphorylation, human CD4+ T cells [6]: 2.21e-09 M
H4H12889P (antibody, human IgG4 S228P, kappa, V domains shown, human IgG4; also called REGN7257) VH: EVQLVESGGGLVQPGGSLRLSCAASGFIFSSYEMHWVRQAPGKGLEWISYISSSGTTIYYADSVKGRFTISRDNAKNSLYLHMNSLRAEDTAVYYCTRARITGTFDVFDIWGQGTMVTVSS VL: DIQMTQSPSSLSASVGDRVTITCRASQSISSYLNWYQQKPGKAPKLLIFAASNLQSGVPSRFSGSRSGTDFTLTISSLQPEDFATYYCQQNYNIPYTFGQGTKLEIKR	0.441 nM	0 RU	38 RU	5.34 nM	0.00107 s⁻¹	200000 M⁻¹ s⁻¹	11 min	16 RU	20 nM	0.00507 s⁻¹	254000 M⁻¹ s⁻¹	2.3 min	2.7e-08 M	1.9e-09 M	3e-09 M	7.1e-09 M	8.5e-09 M	> 1e-07 M	0 RU	no binding (tested: 100 nM)	Max Inhibition (%); IL-2 30 pM; NK92/hIL7R/STAT3-luc [5]: 81%; Max Inhibition (%); IL-4 250 pM; Ramos.2G6.4C10/STAT3-luc [5]: 101%; Max Inhibition (%); IL-7 50 pM; NK92/hIL7R/STAT3-luc [5]: 100%; Max Inhibition (%); IL-9 20 pM; NK92/hIL7R/STAT3-luc [5]: 100%; Max Inhibition (%); IL-15 60 pM; NK92/hIL7R/STAT3-luc [5]: 92%; Max Inhibition (%); IL-21 5 pM; NK92/hIL7R/STAT3-luc [5]: 35%; IC50; IL-2 (10 nM)-induced STAT phosphorylation, human CD4+ T cells [6]: 2.06 nM; IC50; IL-4 (50 pM)-induced STAT phosphorylation, human CD4+ T cells [6]: 1.1e-09 M; IC50; IL-7 (1 pM)-induced STAT phosphorylation, human CD4+ T cells [6]: 8.92e-10 M; IC50; IL-15 (0.5 nM)-induced STAT phosphorylation, human CD4+ T cells [6]: 2.55 nM; IC50; IL-21 (50 pM)-induced STAT phosphorylation, human CD4+ T cells [6]: 2.28e-09 M
H4H12926P2 (antibody, human IgG4 S228P, kappa, V domains shown, human IgG4) VH: QVQLQQSGPGLVKPSQTLSLTCAISGDSVSSNIAAWNWIRLSPSRGLEWLGRTFFRSTWFYDYSLSVKGRITINPDTSKNQFSLHLNSVTPEDAAVYYCARTGRRWSLDYWGQGTLVTVSS VL: not shown		0 RU																	0 RU	no binding (tested: 100 nM)	Kd [8]: 195 nM; koff [8]: 0.0273 s⁻¹; kon [8]: 140000 M⁻¹ s⁻¹; t½ [8]: 0.4 min
